Laboratory results taken from the RNAGym collection of RNA variant scans (doi:10.7554/elife.80360).

B1: CPEB3 Ribozyme (parent)
chain: GGGGGCCACAGCAGAAGCGUUCACGUCGCGGCCCCUGUCAGAUUCUGGUGAAUCUGCGAAUUCUGCUGU

Variants of: B1
Assay: self-cleavage, relative activity (ratio to wild type); higher = more cleavage; co-transcriptional

Variant	self-cleavage
GGGGGCCACAGCAGCAGCGUUCACGUCGCGGCCCCUGUCAGAUUCUGGUGAAUCUGCGUAUUCUGCUGU	0.353
GGGGGCCACAGCAGCAGCGUUCACGUCGCGGCCCCUGUCAGAUUCUGGUGAAUCUGCGGAUUCUGCUGU	0.798
GGGGGCCACAGCAUAGGCGUUCACGUCGCGGCCCCUGUCAGAUUCUGGUGAAUCUGCGAAUUCUGCUGU	0.504
GGGGGCCACAGCAGCAGCGUUCGCGUCGCGGCCCCUGUCAGAUUCUGGUGAAUCUGCGAAUUCUGCUGU	0.659
GGGGGCCACAGCAGCAGCGUUCCCGUCGCGGCCCCUGUCAGAUUCUGGUGAAUCUGCGAAUUCUGCUGU	0.835
GGGGGCCACAGCAGCAGCGUUCUCGUCGCGGCCCCUGUCAGAUUCUGGUGAAUCUGCGAAUUCUGCUGU	0.917
GGGGGCCACAGCAGCAGCGUUCACGUCGCGGCCCCUGUCAGAUUCUGGUGAAUCUGCGAAUUAUGCUGU	0.921
GGGGGCCACAGCAGCAGCGUUCACGUCGCGGCCCCUGUCAGAUUCUGGUGAAUCUGCGAAUUUUGCUGU	0.937
GGGGGCCACAGCAUAAGCGUGCACGUCGCGGCCCCUGUCAGAUUCUGGUGAAUCUGCGAAUUCUGCUGU	0.147
GGGGGCCACAGCAUAAGCGUUCACGUCGCGGCCCCUGUCAGAUUCUGGUGAAUCUGCGAAUUCUGCUAU	0.908
GGGGGCCACAGCAUAAGCGUUCACGUCGCGGCCCCUGUCAGAUUCUGGUGAAUCUGCGAAUUCUGCUCU	0.779
GGGGGCCACAGCAUAAGCGUUCACGUCGCGGCCCAUGUCAGAUUCUGGUGAAUCUGCGAAUUCUGCUGU	0.257
GGGGGCCACAGCAUAAGCGUUCACGUCGCGGCCCCUGUAAGAUUCUGGUGAAUCUGCGAAUUCUGCUGU	0.223
GGGGGCCACAGCAUAAGCGUUCACGUCGCGGCCCCUGUCAGAAUCUGGUGAAUCUGCGAAUUCUGCUGU	0.321
GGGGGCCACAGCAUAAGCGUUCACGUCGCGGCCCCUGUCAGAUUCUGGUGAAUCUGCUAAUUCUGCUGU	0.893
GGGGGCCACAGCAGCAGCGUUCACGUCGCGGCCCCUGUCUGAUUCUGGUGAAUCUGCGAAUUCUGCUGU	0.451
GGGGGCCACAGCAUAAGCGUUCACGUCGCGGCCCCUGUCAGAUUCUGGUGAAUCUGCGACUUCUGCUGU	0.269
GGGGGCCACAGCAUAAGCGUUCACGUCGCGGCCCCUGUCAGAUUCUGGUGAAUCUGCGAUUUCUGCUGU	0.331
GGGGGCCACAGCAUAAGCGUUCACGUCGCGGCCCCUGUCAGAUUCUGCUGAAUCUGCGAAUUCUGCUGU	0.907
GGGGGCCACAGCAUAAGCGUUCACGUCGCGGCCCCUGUCAGAUUCUGUUGAAUCUGCGAAUUCUGCUGU	0.855
GGGGGCCACAGCAUAAGCGUUCACGUCGCGGCCCCUGUCAGAUUCGGGUGAAUCUGCGAAUUCUGCUGU	0.871
GGGGGCCACAGCAUAAGCGUUCACGUCGCGGCCCCUGUCAGAUACUGGUGAAUCUGCGAAUUCUGCUGU	0.553
GGGGGCCACAGCAUAAGCGUUCACGUCGCGGCCCCUGUCAGAUGCUGGUGAAUCUGCGAAUUCUGCUGU	0.566
GGGGGCCACAGCAUAAGCCUUCACGUCGCGGCCCCUGUCAGAUUCUGGUGAAUCUGCGAAUUCUGCUGU	0.15
GGGGGCCACAGCAUAAGCUUUCACGUCGCGGCCCCUGUCAGAUUCUGGUGAAUCUGCGAAUUCUGCUGU	0.17
GGGGGCCACAGCAGCAGCGUUCACGUCGCGGCCCCUGUAAGAUUCUGGUGAAUCUGCGAAUUCUGCUGU	0.359

Variant	self-cleavage
GGGGGCCACAGCAUAAGCGUUCACGUCGCGGCCCCUGUCAGAUUCUGGUGAAUCUACGAAUUCUGCUGU	0.539
GGGGGCCACAGCAGCAGCGUUCACGUCGCGGCCCCUGUCAGAUUCUGGUGAUUCUGCGAAUUCUGCUGU	0.816
GGGGGCCACAGCAGCAGCGUUCACGUCGCGGCCCCUGUCAGAUUCUGGUGACUCUGCGAAUUCUGCUGU	0.748
GGGGGCCACAGCAUAAGCGUUCACGUCGCGGCCCCUGUCAGAUUCUGGUGAAUCUGCGAAUUCUGCUGC	1.03
GGGGGCCACAGCAUAAGCGUUCACGUCGCGGCCCCUGUCAGAUUCUGGUGAAUCUGCGAAUUCUGCUGA	0.923
GGGGGCCACAGCAUAAGCGUUCACGUCGCGGCCCCUGUCAGAUUCUGGUGAAUCUGCGAAUUCUGCUGG	0.94
GGGGGCCACAGCAUAAGCGUUCACGUCGCGGCCCCUGUCAGAUUCUGGAGAAUCUGCGAAUUCUGCUGU	0.858
GGGGGCCACAGCAUAAGCGCUCACGUCGCGGCCCCUGUCAGAUUCUGGUGAAUCUGCGAAUUCUGCUGU	0.219
GGGGGCCACAGCAUAAGCGUUCACGCCGCGGCCCCUGUCAGAUUCUGGUGAAUCUGCGAAUUCUGCUGU	0.478
GGGGGCCACAGCAUAAGCGUUCACGUCGCGGCCCCCGUCAGAUUCUGGUGAAUCUGCGAAUUCUGCUGU	0.535
GGGGGCCACAGCAUAAGCGUUCACGUCGCGGCCCCGGUCAGAUUCUGGUGAAUCUGCGAAUUCUGCUGU	0.142
GGGGGCCACAGCAUAAGCGUUCACGUCGCGGCCCCUGUCAGAUUCUGGUGAAUCUGCGAAUACUGCUGU	0.482
GGGGGCCACAGCAUAAGCGUUCACGUCGCGGCCCCUGUCAGGUUCUGGUGAAUCUGCGAAUUCUGCUGU	0.404
GGGGGCCACAGCAUAAGCGUUCACGUCCCGGCCCCUGUCAGAUUCUGGUGAAUCUGCGAAUUCUGCUGU	0.159
GGGGGCCACAGCAUAAGCGUUCACGUCACGGCCCCUGUCAGAUUCUGGUGAAUCUGCGAAUUCUGCUGU	0.213
GGGGGCCACAGCAUUAGCGUUCACGUCGCGGCCCCUGUCAGAUUCUGGUGAAUCUGCGAAUUCUGCUGU	0.358
GGGGGCCACAGCAUAAGCGUUCACGUCGCGGCCCCUGUCAGAUUCUGGUGAAUCUGCGCAUUCUGCUGU	0.309
GGGGGCCACAGCAUAAGCGUUCACGUCGCGGCCCCUGUCAGAUUCUGGUGAAUCUGCGGAUUCUGCUGU	0.753
GGGGGCCACAGCAUAAGCGUUCACGUCGCGGCCCCUGUCAGAUUCUGGUGAAUCAGCGAAUUCUGCUGU	0.325
GGGGGCCACAGCAGCAGCGUUAACGUCGCGGCCCCUGUCAGAUUCUGGUGAAUCUGCGAAUUCUGCUGU	0.148
GGGGGCCACAGCAGCAGCGUUGACGUCGCGGCCCCUGUCAGAUUCUGGUGAAUCUGCGAAUUCUGCUGU	0.0813
GGGGGCCACAGCAGCAGCGUUCACGUCGAGGCCCCUGUCAGAUUCUGGUGAAUCUGCGAAUUCUGCUGU	0.297
GGGGGCCACAGCAUAACCGUUCACGUCGCGGCCCCUGUCAGAUUCUGGUGAAUCUGCGAAUUCUGCUGU	0.128
GGGGGCCACAGCAUAAGCGUUCACGUCGCGGCCCCUGUCAGAUUCUGGUGAAUCUGCGAAUUCUGUUGU	0.436
GGGGGCCACAGCAUAAGCGUUCACGUGGCGGCCCCUGUCAGAUUCUGGUGAAUCUGCGAAUUCUGCUGU	0.154
GGGGGCCACAGCAUAAGCGUUCACGUAGCGGCCCCUGUCAGAUUCUGGUGAAUCUGCGAAUUCUGCUGU	0.172

Variant	self-cleavage
GGGGGCCACAGCAUAAGCGUUCACGUCGCGGCGCCUGUCAGAUUCUGGUGAAUCUGCGAAUUCUGCUGU	0.341
GGGGGCCACAGCAUAAGCGUUGACGUCGCGGCCCCUGUCAGAUUCUGGUGAAUCUGCGAAUUCUGCUGU	0.172
GGGGGCCACAGCAUAAGCGUUCACGUCGCGGCCCCUGUCAGAUUCUGGUGAAUCUGCGAAUUCUGCAGU	0.733
GGGGGCCACAGCAGCAGCGUUCACGUCGCGGCCCCUGUCAGAUUCUGGUGAAUCUGGGAAUUCUGCUGU	0.269
GGGGGCCACAGCAGCAGCGUUCACGUCGCGGCCCCUGUCAGAUUCUGGUGAAUCUGAGAAUUCUGCUGU	0.282
GGGGGCCACAGCAUAAGCGUUCACGUCGCGGCCCCUGUCCGAUUCUGGUGAAUCUGCGAAUUCUGCUGU	0.17
GGGGGCCACAGCAUAAGCGUUCACGUCGCGGCCCCUGUCAGAUUCUGGUGAAUCUGCGAAAUCUGCUGU	0.461
GGGGGCCACAGCAUAAGCGUUCACGUCGCGGCCCCUGUCAGAUUCUGGUGUAUCUGCGAAUUCUGCUGU	0.739
GGGGGCCACAGCAGCAGCGUUCACGUCGCGGCCGCUGUCAGAUUCUGGUGAAUCUGCGAAUUCUGCUGU	0.131
GGGGGCCACAGCAGCAGCGUUCACGUCGCGGCCUCUGUCAGAUUCUGGUGAAUCUGCGAAUUCUGCUGU	0.909
GGGGGCCACAGCAUAAGCGUUCAAGUCGCGGCCCCUGUCAGAUUCUGGUGAAUCUGCGAAUUCUGCUGU	0.249
GGGGGCCACAGCAGCAGCGUUCACGUCGCGGCCCCUGUCAGAUUUUGGUGAAUCUGCGAAUUCUGCUGU	0.949
GGGGGCCACAGCAGCAGCGUUCACGUCGCGGCCCCUGUCAGAUUAUGGUGAAUCUGCGAAUUCUGCUGU	0.772
GGGGGCCACAGCAGCAGCGUUCACGUCGCGGCCCCUGUCAGAUUGUGGUGAAUCUGCGAAUUCUGCUGU	0.865
GGGGGCCACAGCAGCAGCGUUCACGUCGCGGCCCUUGUCAGAUUCUGGUGAAUCUGCGAAUUCUGCUGU	0.686
GGGGGCCACAGCAGCAGCGUUCACGUCGCGGUCCCUGUCAGAUUCUGGUGAAUCUGCGAAUUCUGCUGU	0.853
GGGGGCCACAGCAUAAGCGUUCACGUCGCGGCCCCUGUCAAAUUCUGGUGAAUCUGCGAAUUCUGCUGU	0.206
GGGGGCCACAGCAUAAGCGUUCACGUCGCGGCCCCUGUCAUAUUCUGGUGAAUCUGCGAAUUCUGCUGU	0.276
GGGGGCCACAGCAUAAGCGUUCACGUCGCGGCCCCUAUCAGAUUCUGGUGAAUCUGCGAAUUCUGCUGU	0.197
GGGGGCCACAGCAGCAGCGUUCACGUCGCGGCUCCUGUCAGAUUCUGGUGAAUCUGCGAAUUCUGCUGU	0.911
GGGGGCCACAGCAGCAGCGUUCACGUAGCGGCCCCUGUCAGAUUCUGGUGAAUCUGCGAAUUCUGCUGU	0.091
GGGGGCCACAGCAUAAGCGUUCACGUCGCGGGCCCUGUCAGAUUCUGGUGAAUCUGCGAAUUCUGCUGU	0.237
GGGGGCCACAGCAGCAGCGUUCACGUCGCGGCCCCUGUCAGAUUCUGGUGUAUCUGCGAAUUCUGCUGU	0.826
GGGGGCCACAGCAGCAGCGUUCACGUCGCGGCCCCUGUCAGAUUCUGGUGGAUCUGCGAAUUCUGCUGU	0.897
GGGGGCCACAGCAGCAGCGUUCAGGUCGCGGCCCCUGUCAGAUUCUGGUGAAUCUGCGAAUUCUGCUGU	0.269
GGGGGCCACAGCAUAAGCGUUCACGUCGCGGCCCCUGUCAGAUUCUGGUGAGUCUGCGAAUUCUGCUGU	0.851
